Series [1] addresses zebrafish Olig1, mammalian two-hybrid fusion (zebrafish). Kind of series: two-hybrid.
The target of series [2] is zebrafish Olig2, mammalian two-hybrid fusion (zebrafish). Put plainly: two-hybrid.
Series [3] deals with T1, Sox10 (Danio rerio (zebrafish), UniProt Q90XD1 1-485). Kind of series: EMSA. On the technique in general: Mobility shift assays separate free from complexed probe on a gel.
In series [4] the target is T2, Olig1 (Danio rerio (zebrafish), UniProt Q5QJR2 1-235).
T2 sequence: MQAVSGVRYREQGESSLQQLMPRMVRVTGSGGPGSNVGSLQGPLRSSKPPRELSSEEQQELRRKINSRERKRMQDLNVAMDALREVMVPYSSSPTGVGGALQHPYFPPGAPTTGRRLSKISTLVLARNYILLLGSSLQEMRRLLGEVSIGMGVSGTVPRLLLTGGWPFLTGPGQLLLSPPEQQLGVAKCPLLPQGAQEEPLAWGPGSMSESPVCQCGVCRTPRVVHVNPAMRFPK
Put plainly: EMSA.

Series [5] has as its target T1, Sox10. Put plainly: competition.
In series [6] the target is T2, Olig1. Kind of series: competition.

From paper PMC6329447 come the findings set out here.

Consider “zebrafish Olig1, mammalian two-hybrid fusion (natural protein)”, for which the fold increase of luciferase activity in series [1] and in series [2] was 8 fold in each case.

B1: EbS2 (dsDNA)
DNA 1: CAAGTCGGGGCAGATGTGGACTAGAACAATAGCAGCTCC
DNA 2: GGAGCTGCTATTGTTCTAGTCCACATCTGCCCCGACTTG
Take B1: the binding result with Sox10 [3] and with Olig1 [4] was “binds” throughout.

B2: EbS2mut (dsDNA)
DNA 1: CAAGTCGGGGCAGATGTGGACTAGGCCGCTAGCAGCTCC
DNA 2: GGAGCTGCTAGCGGCCTAGTCCACATCTGCCCCGACTTG
Consider B2, for which the binding result with Sox10 [5] is listed as “no binding”.

B3: EbmutS2 (dsDNA)
DNA 1: CAAGTCGGGGTTGTAATGGACTAGAACAATAGCAGCTCC
DNA 2: GGAGCTGCTATTGTTCTAGTCCATTACAACCCCGACTTG
For B3, the binding result with Olig1 [6] is listed as “no binding”.
